# B1: Human coronavirus NL63 (HCoV-NL63) spike RBD (ligand)
# chain: QHTDINFTATASFGGSCYVCKPHQVNISLNGNTSVCVRTSHFSIRYIYNRVKSGSPGDSSWHIYLKSGTCPFSFSKLNNFQKFKTICFSTVEVPGSCNFPLEATWHYTSYTIVGALYVTWSEGNSITGVPYPVSGI
# Target: Wild-type ACE2(740)-Fc (human)
# Test: BLI, ACE2-Fc on tips, RBD in solution
# Sequence of Wild-type ACE2(740)-Fc (human) (chain, as listed by the source): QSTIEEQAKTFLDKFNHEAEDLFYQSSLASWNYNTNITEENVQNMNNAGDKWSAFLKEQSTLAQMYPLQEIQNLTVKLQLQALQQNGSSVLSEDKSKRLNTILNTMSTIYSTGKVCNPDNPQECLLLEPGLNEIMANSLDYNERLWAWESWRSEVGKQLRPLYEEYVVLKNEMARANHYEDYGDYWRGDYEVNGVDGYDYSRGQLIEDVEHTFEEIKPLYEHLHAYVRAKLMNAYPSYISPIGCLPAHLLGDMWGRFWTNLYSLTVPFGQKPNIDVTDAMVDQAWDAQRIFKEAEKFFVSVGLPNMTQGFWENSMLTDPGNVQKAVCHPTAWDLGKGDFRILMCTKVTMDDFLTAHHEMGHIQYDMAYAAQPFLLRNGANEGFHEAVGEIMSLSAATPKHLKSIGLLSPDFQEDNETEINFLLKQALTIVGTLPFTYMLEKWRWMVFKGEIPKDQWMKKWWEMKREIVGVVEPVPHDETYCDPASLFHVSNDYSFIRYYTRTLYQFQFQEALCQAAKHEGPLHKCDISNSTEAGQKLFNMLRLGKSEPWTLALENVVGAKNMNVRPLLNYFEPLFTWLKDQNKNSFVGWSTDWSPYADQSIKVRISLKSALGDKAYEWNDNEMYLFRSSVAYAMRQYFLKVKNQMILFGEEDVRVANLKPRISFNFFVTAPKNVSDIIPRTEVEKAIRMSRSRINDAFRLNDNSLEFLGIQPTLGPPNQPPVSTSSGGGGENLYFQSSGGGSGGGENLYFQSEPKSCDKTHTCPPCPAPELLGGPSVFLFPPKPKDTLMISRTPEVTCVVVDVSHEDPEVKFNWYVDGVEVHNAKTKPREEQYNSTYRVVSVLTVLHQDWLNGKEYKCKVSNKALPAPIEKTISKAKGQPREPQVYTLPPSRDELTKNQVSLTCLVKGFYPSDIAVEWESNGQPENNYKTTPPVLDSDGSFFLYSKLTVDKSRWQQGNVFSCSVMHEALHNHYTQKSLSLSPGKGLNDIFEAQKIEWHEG
binder,measurement,value
B1,Kd,22 nM
